From the DeepSol protein solubility set

Assay: soluble on expression in E. coli; label from the status in PepcDB or PDB records
In the case of “MSLAIGDILRKSARRFPDRVALTDGGRSVTYTELERDANRFANALVARGLKPGAKISTVCNNSIEFVKALFGIHRAGLVWVPINTMLGPDDMGYILDHAGVKVAVIDDNLHGQPERRAALEARGIDLIAINLAGKAADTGLPVFDQLIEGLSEIEPDVAFDDRDLAMIIYTSGTTSRPKGAMHCHLAVTMAVMSNAIEMQLSRKDGITGQFPLFHCAAHVLLLSYLIVGGQMAIMRGFDPVACMEAIQRNKLTVFIGLPLMYQVILDHPRRKEFDLSSLRCCIYTMAPMPRPLLERAIAELCPTFVQPSGQTEMYPATTMSQPDRQLARFGNYWGESTLVNETAIMDDAGNLLPPGEVGEIVHRGPNVMLGYYKDPEATEAARKFGWHHTGDLALIDEHGEVLFLDRKKDMIKSGGENVASIKIEETLLAHPSVMNAAVVGLPHPQWGEAVSGFVKLKPGASATEAEIVEHCKKHLGGFQVPKLLRIVDEMPMTATGKLRKVELRNQFTDHFMLGQTEGHHHHHH”, the “soluble on expression in E. coli” value was “soluble”. For “MGSDKIHHHHHHMSTLRLLISDSYDPWFNLAVEECIFRQMPATQRVLFLWRNADTVVIGRAQNPWKECNTRRMEEDNVRLARRSSGGGAVFHDLGNTCFTFMAGKPEYDKTISTSIVLNALNALGVSAEASGRNDLVVKTVEGDRKVSGSAYRETKDRGFHHGTLLLNADLSRLANYLNPDKKKLAAKGITSVRSRVTNLTELLPGITHEQVCEAITEAFFAHYGERVEAEIISPNKTPDLPNFAETFARQSSWEWNFGQAPAFSHLLDERFTWGGVELHFDVEKGHITRAQVFTDSLNPAPLEALAGRLQGCLYRADMLQQECEALLVDFPEQEKELRELSAWMAGAVR”, the “soluble on expression in E. coli” value was “not soluble”. In the case of “MGSDKIHHHHHHVRFIMKTNLFTSLLKKCIYGLSWFFPRQGNKAVFGCYKNLFADNSKYLYLHWHKNKFMHVIWISGDASLVNALRKKGFIAYERWSLEGVYHALTARFYIYNSYIGDVNQWFASGSIKINLWHGSPLKRIEFDIDHGPLAHKYQSNSYWQKTWHSLLYHQEYVRPQLMLSPSPLVDRLFCSAFRLQKKQLLSCGNPRTDFYRRYPDKCQSINSKPDGTSYKKVILYAPSWRDANLSNTETVQSPYEKAFNWGVLSQFLVNSDCLFLLRLHPNERHYAKHFSAYPNVRDISSWEDVYGILHQVDLLLTDYSSLFIDVLPLNIPIVFYLFDHESYIKNSRNCYEYSQCLPQAGLIAYGFEELINILKNNTSKKQTETLHLAYTQLQKLYWQEMNEHSDCFELLERYICRRNLLKSPLNTQIS”, the “soluble on expression in E. coli” value was “not soluble”. For “MVDLSRRSMLTGSWRNASNGILPPWARETTYFLAHCLRCDACIQACEADILQRGAGGYPSVDFKRGECSFCYACAQACTESLFLPRHTRAWDLVFTLTENCLARQSVECHRCQDSCEPMAITFRPTLSGIYQPQLDSQACNGCGACVAICPVSAIKAENHHAH”, the “soluble on expression in E. coli” value was “not soluble”. With “QSRERLVKWLQDAYAMEKEAETMMAAMASRIEHYPELKRRIEQHVEETQQQSAGVQRCLELLNGSIPTAKGMLSSVLASMHAAGNSMMTDEVTKGVGISYAFEHLEIASYRALVVAARSAGEQEVAQICEDILQQEIEMAEWLIEHQEAIVVAFLE” the “soluble on expression in E. coli” value was “not soluble”. With “MGSDKIHHHHHHMPKVLHVADVHLGARPYGLEERRDDIFRSFEFVVETALKDRPDAVLIAGDLFDKPKLPLRDVKQAVELVRALTDAGIPVLAAHGEHDTPSVRDETLLSLMEASLDGFKAPLYRSGMRPGDFVVDLGSLKVAVVPFFKVPLEERRRLTLRFLREFDQISRTSSGTLVLLAHMSLDAEMQFDAVASPSDLPSGAKYAALGHLHAPRIRLDAPTPYAYPGVLDPLKVEEINTPGSPLYVDLSGDAPIIEKVKVPRRPQYRIEVDIGDGGSIYNAVNRGLRRVLANVRASREDWLKPLIHVIIKSDKPISKARVIAEARKAAGGADVLLKIHWKIVAGGEHAGTSPGLQGEGPLDLAKIAAEYYKIPLNAASTILHDLAEAAAEKDELRVREILETLATTVSQDTWKRILYMR” the “soluble on expression in E. coli” value was “not soluble”. For “MKKIEVDLVRTKVYNLLKEMILNHELKLGEKLNVRELSEKLGISFTPVRDALLQLATEGLVKVVPRVGFFVTDVDEKFIRETIETRIMMEVFCLENYFDKIAGSEELLEIKGEIDDVEKSAKREIFDDSDERLHKLFIRASGNELIISLYEKIWDRIDLVRHLNERYVVSNREHKELIERIISGDKEGAIEKLKEHLKNVEAETIKNLYTYERS”, the “soluble on expression in E. coli” value was “soluble”. With “MLLQNILPFAHCLLRKALPEGGNALDGTAGNGHDTLFLAQTAGIRGKVWAFDIQPQALNNTRCRLQEAGYSNVRLILDGHENLKQYIPKPLDAAIFNFGWLPGGDKSLTTRTETSIAALSATLSLLKENGMLIAVLYPGHENGKQEAEAIEQWAKNLPQEQFAVLRYGFTNRKNSPPYLLVFEKLRQKLEHHHHHH” the “soluble on expression in E. coli” value was “soluble”. In the case of “MSLTNHHPSSTGPQHPYRAGWIHFTNVAPILDSLELPPGVTAITGVPTQMNAALLSGEVDIANVSAVEFIRHADTLAALPDFSVAVLGPVYSVNLFHTCPLPELRRVALTSQSAMSVALLEVLLRQKGLSPVLERAEGTAESLLAAGYDGVLRIGDDALREWYGVVGPLTPERTMTSLPHTGRGITVTDLAQEWFDLTGHPFTFAVWAYRKDNPPPAALLQAMREARRRGIGHLAEVSQRHAEKLGLPERVVQHYLWNFRYHLEAPDRLGLREFADLAVPGHAELTFGAREEAEGHHHHHH”, the “soluble on expression in E. coli” value was “soluble”. In the case of “MKVLDSRDFAKVKAIAIERASYRNIGALAVYIGSMTGMRISEVLALTWPDIDTKLCVIHVTRSWDHLYGTGFKPTKTDSSVRDIEISPSVIELLNKIHQEQAASYLRTGYRDEDQMIMRDPRHNVITDSACNKALHVIQNKAGIPEDKQITFHGLRHSHVSYLISKGVDIYYISKRLGHSDVTITMKVYGHLLEHHHHHH”, the “soluble on expression in E. coli” value was “soluble”. With “MGSSHHHHHHSSGLVPRGSHVHNKVTIIGSGPAAHTAAIYLARAEIKPILYEGMMANGIAAGGQLTTTTEIENFPGFPDGLTGSELMDRMREQSTKFGTEIITETVSKVDLSSKPFKLWTEFNEDAEPVTTDAIILATGASAKRMHLPGEETYWQKGISACAVCDGAVPIFRNKPLAVIGGGDSACEEAQFLTKYGSKVFMLVRKDHLRASTIMQKRAEKNEKIEILYNTVALEAKGDGKLLNALRIKNTKKNEETDLPVSGLFYAIGHTPATKIVAGQVDTDEAGYIKTVPGSSLTSVPGFFAAGDVQDSKYRQAITSAGSGCMAALDAEKYLTSLE” the “soluble on expression in E. coli” value was “soluble”. In the case of “VIRPKTLGQKHYVDAIDTNTIVFGLGPAGSGKTYLAMAKAVQALQSKQVSRIILTRPAVEAGEKLGFLPGTLNEKIDPYLRPLHDALRDMVEPEVIPKLMEAGIVEVAPLAYMRGRTLNDAFVILDEAQNTTPAQMKMFLTRLGFGSKMVVTGDITQVDLPGGQKSGLRLVRHILRGVDDVHFSELTSSDVVRHQLVGHIVDAYEDYEEREARELKRKRQETRP”, the “soluble on expression in E. coli” value was “soluble”. For “MTDCEFGYIYRLAQDYLQCVLQIPQPGSGPSKTSRVLQNVAFSVQKEVEKNLKSCLDNVNVVSVDTARTLFNQVMEKEFEDGIINWGRIVTIFAFEGILIKKLLRQQIAPDVDTYKEISYFVAEFIMNNTGEWIRQNGGWENGFVKKFEPKSGWMTFLEVTGKICEMLSLLKQYC”, the “soluble on expression in E. coli” value was “soluble”. In the case of “SCIIFFKFDPRPVSKNAYRLILAANRDEFYSRPSKLADFWGNNNEILSGLDMEEGKEGGTWLGISTRGKLAALTNYLQPQLDWQARGRGELVTHFLTTDVDSLSYLKKVSMEGHLYNGFNLIAANLSTAKGDVICYYGNRGEPDPIVLTPGTYGLSNALLETPWRKLCFGKQLFLEAVERSQALPKDVLIASLLDVLNNKEAQLPDPAIEDQGGEYVQPMLSKYAAVCVRCPGYGTRTNTIILVDADGHVTFTERSMMDKDLSHWETRTYEFTLQS”, the “soluble on expression in E. coli” value was “not soluble”. For “MGSDKIHHHHHHMTFLRALLGATGQTLRAALAGLTVKPHSGHPVFPVTWVTPHIAAGPAPVSAAHLEALREQGIVAILNVCEELCTLADTEEAAGFEVRFLPIEDEGAPEPDALEEVLDWLDESVWRGRKVYVHCRWGVGRTGTVLHAYLLRRGLSPRRAEHFLSRLRSRPTSYTQWRSLRRFARRNPALTVREAAVEPGVADAMTPVLRDLARLVQEVERHVEAATPGISPEAFADAPRCGRDHVRCCATPPTLTLAEAAALTAAMDALLSSTQRDELRQKTSRGSGVPCPLLHDQRCLLYEARPLRCRTADMDETARLRLLEEVVADTLDDLDRRVFGLLAGCTPATSPPCFPIVEVLSGRYVATTFRHVACGLNTGKP”, the “soluble on expression in E. coli” value was “not soluble”.
